Assays:
Activin A [1] = target: T1, Activin A (human, UniProt P08476 311-426); experiment: Octet cross-competition; binder on anti-hFc tip; 50 nM hActivin A pre-bound with 1 uM H4H10468P2 (col 2); black box
T1 construct: Homodimer of two βA subunits; bought from R&D Systems (#338-AC); also called inhibin-βA dimer; human Activin A
T1 sequence: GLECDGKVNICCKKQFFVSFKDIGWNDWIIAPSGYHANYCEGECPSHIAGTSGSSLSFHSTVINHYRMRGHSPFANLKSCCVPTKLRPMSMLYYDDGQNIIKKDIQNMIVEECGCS
Description: (§1) No. 8,309,082) and Control 3 (MAB3381, available from R&D Systems, Inc., Minneapolis, Minn.) were also included in the assays. All assays were performed at 25° C. with a microtiter plate shaking rate of 1000 rpm in Octet HBST buffer (0.01 M HEPES pH7.4, 0.15M NaCl, 3 mM EDTA, 0.05% v/v Surfactant P20, 0.1 mg/mL BSA) according to manufacturer's instructions (ForteBio Corp., Menlo Park, Calif.). […] Any remaining anti-hFc binding sites on the tips were blocked by incubating the tips in a 50 ug/mL solution of irrelevant antibody for 5 minutes.

Activin A [2] = target: T1, Activin A; experiment: Octet cross-competition; binder on anti-hFc tip; 50 nM hActivin A pre-bound with 1 uM Control 1 (col 10); white box
Description: as §1

Activin A [3] = target: T1, Activin A; experiment: SPR, captured mAb, 37C
In short: (§2)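 240 s association, 600 s buffer dissociation; ka, kd fitted; KD (M) = kd/ka; t1/2 (min) = ln2/(60*kd).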

Activin B [4] = target: T2, Activin B (human, UniProt P09529 293-407); experiment: SPR, captured mAb, 37C
T2 construct: Homodimer of two βB subunits; R&D Systems #659-AB
T2 chain: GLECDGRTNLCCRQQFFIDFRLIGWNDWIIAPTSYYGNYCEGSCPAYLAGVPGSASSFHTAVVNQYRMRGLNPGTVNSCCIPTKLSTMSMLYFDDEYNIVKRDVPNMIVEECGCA
In short: as §2

Activin A [5] = target: T1, Activin A; experiment: SPR, captured mAb, 25C
In short: as §2

Activin B [6] = target: T2, Activin B; experiment: SPR, captured mAb, 25C
In short: as §2

Activin A [7] = target: T1, Activin A; experiment: Octet cross-competition; binder on anti-hFc tip; 50 nM hActivin A mixed with 1 uM Isotype control 12 (-) (col 12); dark grey box
Description: as §1

Activin A [8] = target: T1, Activin A; experiment: SPR, captured mAb, 25C; no dissociation observed, kd fixed
Description: (§3) Antibody-antigen association was monitored for 240 seconds while dissociation in buffer was monitored for 600 seconds. Kinetic association and dissociation rate constants were determined by processing and fitting the data using Scrubber software version 2.0c. Binding equilibrium dissociation constants (KD) and dissociative half-lives (t_{1/2}) were then calculated from the kinetic rate constants as: KD (M)=kd/kₐ and t_{1/2} (min)=[ln 2/(60*kd)]. (NB=no binding observed under the conditions used; NT=not tested).

Activin A [9] = target: T1, Activin A; experiment: Octet cross-competition; binder on anti-hFc tip; 50 nM hActivin A mixed with 1 uM Isotype control 13 (-) (col 13); dark grey box
Description: as §1

Activin A [10] = target: T1, Activin A; experiment: Octet cross-competition; binder on anti-hFc tip; 50 nM hActivin A pre-bound with 1 uM H4H10440P2 (col 9); white box
Description: as §1

Activin A [11] = target: T1, Activin A; experiment: Octet cross-competition; binder on anti-hFc tip; 50 nM hActivin A pre-bound with 1 uM H4H10436P2 (col 8); white box
Description: as §1

Activin A [12] = target: T1, Activin A; experiment: Octet cross-competition; binder on anti-hFc tip; 50 nM hActivin A pre-bound with 1 uM H4H10429P (col 6); white box
Description: as §1

Activin A [13] = target: T1, Activin A; experiment: SPR, captured mAb, 37C; no dissociation observed, kd fixed
In short: as §2

Activin A [14] = target: T1, Activin A; experiment: Octet cross-competition; binder on anti-hFc tip; 50 nM hActivin A pre-bound with 1 uM Control 3 (col 11); white box
Description: as §1

Activin A [15] = target: T1, Activin A; experiment: Octet cross-competition; binder on anti-hFc tip; 50 nM hActivin A pre-bound with 1 uM H4H10423P (col 4); black box
Description: as §1

Activin A [16] = target: T1, Activin A; experiment: Octet cross-competition; binder on anti-hFc tip; 50 nM hActivin A pre-bound with 1 uM H4H10432P2 (col 7); white box
Description: as §1

Activin A [17] = target: T1, Activin A; experiment: Octet cross-competition; binder on anti-hFc tip; 50 nM hActivin A pre-bound with 1 uM H4H10446P2 (col 1); black box
Description: as §1

Activin A [18] = target: T1, Activin A; experiment: Octet cross-competition; binder on anti-hFc tip; 50 nM hActivin A pre-bound with 1 uM H4H10430P (col 5); white box
Description: as §1

Activin A [19] = target: T1, Activin A; experiment: Octet cross-competition; binder on anti-hFc tip; 50 nM hActivin A pre-bound with 1 uM H4H10442P2 (col 3); black box
Description: as §1

Activin B [20] = target: T2, Activin B; experiment: SPR, captured mAb, 25C; 25 C
Description: as §3

Activin A [21] = target: T1, Activin A; experiment: Octet cross-competition; binder on anti-hFc tip; 50 nM hActivin A pre-bound with 1 uM H4H10430P (col 5); black box
Description: as §1

B1: H4H10442P2 (antibody, human IgG4, V domains shown)
VH: QVQLQESGPGLVKPSETLSITCTVSGGSFSSHFWTWIRQPPGKGLEWIGYLHYSGGTSYNPSLKSRVIISVDTSKNQFSLKLNSVTAADTAVYYCARARSGITFGGLIVPGSFDIWGQGTMVTVSS
VL: not shown
B1 was tested, and the binding response (Activin A [1]) was 0.36, the binding response (Activin A [2]) was 0.99 and the “Activin A-20 nM (RU)” value (Activin A [3]) was 40.5 RU. The Kd (Activin A [3]) was at most 3.48 pM, the kon (Activin A [3]) was 1.44e+07 M⁻¹ s⁻¹ and the t1/2 (Activin A [3]) was at least 3.85 h. For the same binder, the “50 nM Ag Bound (RU)” value (Activin B [4]) was 4.4 RU, the “Activin A-20 nM (RU)” value (Activin A [5]) was 31.3 RU and the Kd (Activin A [5]) was at most 4.55 pM. The kon (Activin A [5]) was 1.1e+07 M⁻¹ s⁻¹, the t1/2 (Activin A [5]) was at least 3.85 h and the “50 nM Ag Bound (RU)” value (Activin B [6]) was 3.4 RU. The binding result (Activin B [6]) was “no binding (tested: 50 nM)”, the binding response (Activin A [7]) was 0.46 and the koff (Activin A [8]) was at most 5e-05 s⁻¹. It also gave a binding response (Activin A [9]) of 0.26, a binding response (Activin A [10]) of 1.5 and a binding response (Activin A [11]) of 1.44. For the same binder, the binding response (Activin A [12]) was 1.55, the koff (Activin A [13]) was at most 5e-05 s⁻¹ and the binding response (Activin A [14]) was 0.99. The binding response (Activin A [15]) was 0.27, the binding response (Activin A [16]) was 1.59 and the binding response (Activin A [17]) was 0.35. For the same binder, the binding response (Activin A [18]) was 1.33.

B2: H4H10446P2 (antibody, human IgG4, V domains shown)
VH: QVQLQESGPGLVKPSETLSLTCTVSGGSFSSHFWSWIRQPPGKGLEWIGYILYTGGTSFNPSLKSRVSMSVGTSKNQFSLKLSSVTAADTAVYYCARARSGITFTGIIVPGSFDIWGQGTMVTVSS
VL: not shown
notes: also called H4H20446
With B2 the binding response (Activin A [1]) was 0.36, the binding response (Activin A [2]) was 0.83 and the “Activin A-20 nM (RU)” value (Activin A [3]) was 31.5 RU. For the same binder, the Kd (Activin A [3]) was at most 3.25 pM, the kon (Activin A [3]) was 1.54e+07 M⁻¹ s⁻¹ and the t1/2 (Activin A [3]) was at least 3.85 h. For the same binder, the “50 nM Ag Bound (RU)” value (Activin B [4]) was 3.8 RU, the binding result (Activin B [4]) was “no binding (tested: 50 nM)” and the “Activin A-20 nM (RU)” value (Activin A [5]) was 24.1 RU. It also gave a Kd (Activin A [5]) of at most 3.88 pM, a kon (Activin A [5]) of 1.29e+07 M⁻¹ s⁻¹ and a t1/2 (Activin A [5]) of at least 3.85 h. For the same binder, the “50 nM Ag Bound (RU)” value (Activin B [6]) was 3.6 RU, the binding response (Activin A [7]) was 0.47 and the koff (Activin A [8]) was at most 5e-05 s⁻¹. The binding response (Activin A [9]) was 0.26, the binding response (Activin A [19]) was 0.39 and the binding response (Activin A [10]) was 1.67. The binding response (Activin A [11]) was 1.61, the binding response (Activin A [12]) was 1.61 and the koff (Activin A [13]) was at most 5e-05 s⁻¹. For the same binder, the binding response (Activin A [14]) was 1.21, the binding response (Activin A [15]) was 0.33 and the binding response (Activin A [16]) was 1.68. For the same binder, the binding response (Activin A [18]) was 1.39.

B3: H4H10468P2 (antibody, human IgG4, V domains shown)
VH: QVQLQESGPGLVKPSETLSLTCTVSGGSFSSHFWSWIRQPPGKGLEWIGYIYYSGGTHYNPSLESRVTISVDTSKNQFSLKLNSVTAADTAVYYCARARSGITFGGLIVPGSFDIWGQGTMVTVSS
VL: not shown
With B3 the binding response (Activin A [2]) was 1.08, the “Activin A-20 nM (RU)” value (Activin A [3]) was 24.5 RU and the Kd (Activin A [3]) was at most 4.1 pM. For the same binder, the kon (Activin A [3]) was 1.22e+07 M⁻¹ s⁻¹, the t1/2 (Activin A [3]) was at least 3.85 h and the “50 nM Ag Bound (RU)” value (Activin B [4]) was 3.4 RU. For the same binder, the binding result (Activin B [4]) was “no binding (tested: 50 nM)”, the “Activin A-20 nM (RU)” value (Activin A [5]) was 21.7 RU and the Kd (Activin A [5]) was at most 6.36 pM. For the same binder, the kon (Activin A [5]) was 7.86e+06 M⁻¹ s⁻¹, the t1/2 (Activin A [5]) was at least 3.85 h and the “50 nM Ag Bound (RU)” value (Activin B [6]) was 6.2 RU. It also gave a binding response (Activin A [7]) of 0.41, a koff (Activin A [8]) of at most 5e-05 s⁻¹ and a binding response (Activin A [9]) of 0.28. The binding response (Activin A [19]) was 0.4, the binding response (Activin A [10]) was 1.7 and the binding response (Activin A [11]) was 1.66. It also gave a binding response (Activin A [12]) of 1.68, a koff (Activin A [13]) of at most 5e-05 s⁻¹ and a binding response (Activin A [14]) of 0.79. For the same binder, the binding response (Activin A [15]) was 0.41, the binding response (Activin A [16]) was 1.73 and the binding response (Activin A [17]) was 0.33. The binding response (Activin A [18]) was 1.41.

B4: H4H10423P (antibody, human IgG4, V domains shown)
VH: QVQLQQSGPGLLKPSQTLSLTCAISGDSVSSNSAAWSWIRQSPSRGLEWLGRTYYRANWFNDYALSVKSRITINPVTSTNHFSLQLHSVTPEDTAVYYCAREGALGYYFDSWGQGTLVTVSS
VL: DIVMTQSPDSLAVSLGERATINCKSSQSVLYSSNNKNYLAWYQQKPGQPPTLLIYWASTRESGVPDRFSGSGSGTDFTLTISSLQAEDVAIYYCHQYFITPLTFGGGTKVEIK
Binder B4 has a Kd (Activin B [20]) of 61800 pM, a koff (Activin B [20]) of 0.0302 s⁻¹ and a kon (Activin B [20]) of 489000 M⁻¹ s⁻¹. For the same binder, the t1/2 (Activin B [20]) was 24 s, the binding response (Activin A [1]) was 0.58 and the binding response (Activin A [2]) was 0.6. For the same binder, the “Activin A-20 nM (RU)” value (Activin A [3]) was 25.2 RU, the Kd (Activin A [3]) was at most 12.6 pM and the kon (Activin A [3]) was 3.95e+06 M⁻¹ s⁻¹. For the same binder, the t1/2 (Activin A [3]) was at least 3.85 h, the “Activin A-20 nM (RU)” value (Activin A [5]) was 19.4 RU and the Kd (Activin A [5]) was 32.6 pM. For the same binder, the koff (Activin A [5]) was 0.000109 s⁻¹, the kon (Activin A [5]) was 3.33e+06 M⁻¹ s⁻¹ and the t1/2 (Activin A [5]) was 1.77 h. For the same binder, the binding response (Activin A [7]) was 0.39, the binding response (Activin A [9]) was 0.26 and the binding response (Activin A [19]) was 0.59. The binding response (Activin A [10]) was 1.31, the binding response (Activin A [21]) was 0.28 and the binding response (Activin A [11]) was 1.49. For the same binder, the binding response (Activin A [12]) was 1.48, the koff (Activin A [13]) was at most 5e-05 s⁻¹ and the binding response (Activin A [14]) was 0.79. For the same binder, the binding response (Activin A [16]) was 1.32 and the binding response (Activin A [17]) was 0.51.
